Assay results taken from article PMC3711433, “Differential roles of human Dicer-binding proteins TRBP and PACT in small RNA processing” (Nucleic Acids Research, 2013).

What was measured:
[1] = target: Dicer;PACT (human;human, UniProt Q9UPY3;O75569 1-1922;1-313, |); test: EMSA; 0.5 uM dsRNA, up to 1 uM complex; shift distinct from PACT alone; Fig 1B: 20 mM HEPES pH 7.5, 300 mM KCl, 5% glycerol, 1 mM TCEP, on ice 45 min, 6% native PAGE; Fig S5: 20 mM Tris-HCl pH 6.5, 1.5 mM MgCl2, 25 mM NaCl, 1 mM DTT, 1% glycerol, on ice 60 min; details: protein: recombinant;recombinant; tags: ;His6-MBP removed by TEV; copies: 1;1
[2] = target: Dicer;TRBP (human;human, UniProt Q9UPY3;Q15633 1-1922;1-366, |); test: EMSA; 0.5 uM dsRNA, up to 1 uM complex; Fig 1B: 20 mM HEPES pH 7.5, 300 mM KCl, 5% glycerol, 1 mM TCEP, on ice 45 min, 6% native PAGE; Fig S5: 20 mM Tris-HCl pH 6.5, 1.5 mM MgCl2, 25 mM NaCl, 1 mM DTT, 1% glycerol, on ice 60 min; details: protein: recombinant;recombinant; copies: 1;1
[3] = target: Dicer (human, UniProt Q9UPY3 1-1922); test: EMSA; 0.5 uM dsRNA, up to 1 uM protein; Fig 1B: 20 mM HEPES pH 7.5, 300 mM KCl, 5% glycerol, 1 mM TCEP, on ice 45 min, 6% native PAGE; Fig S5: 20 mM Tris-HCl pH 6.5, 1.5 mM MgCl2, 25 mM NaCl, 1 mM DTT, 1% glycerol, on ice 60 min; details: protein: recombinant
[4] = target: T1, TRBP (human, UniProt Q15633 1-366); test: as above; details: protein: recombinant
T1 sequence: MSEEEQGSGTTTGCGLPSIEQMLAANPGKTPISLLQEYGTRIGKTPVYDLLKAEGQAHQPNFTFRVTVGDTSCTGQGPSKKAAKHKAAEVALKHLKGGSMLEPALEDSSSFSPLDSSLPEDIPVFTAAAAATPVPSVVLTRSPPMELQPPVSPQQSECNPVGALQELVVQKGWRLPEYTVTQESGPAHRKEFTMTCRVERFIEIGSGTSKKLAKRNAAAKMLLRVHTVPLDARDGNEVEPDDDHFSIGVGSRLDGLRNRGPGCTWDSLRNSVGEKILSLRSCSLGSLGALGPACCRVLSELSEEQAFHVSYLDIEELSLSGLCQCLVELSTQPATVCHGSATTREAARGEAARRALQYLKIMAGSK

[5] = target: T2, Dicer (human, UniProt Q9UPY3 1-1922); test: SEC; gel filtration column chromatography of Dicer with the dsRBP or chimeric dsRBP, reconstituted from purified proteins; details: both partners purified
T2 construct: Dicer, human endoribonuclease; also called endonuclease Dicer

[6] = target: T2, Dicer; test: native gel or EMSA; dsRNA A (0.5 uM) with 0, 0.5 or 1 uM protein or complex in 20 mM HEPES (pH 7.5), 300 mM KCl, 5% glycerol, 1 mM TCEP, on ice 45 min, 6% native PAGE, SYBR-Gold; the shift by the Dicer-dsRBP complex is compared with that by the dsRBP alone; details: both partners purified

Dicer;TRBP, sequence (Q9UPY3 whole entry, one chain of several): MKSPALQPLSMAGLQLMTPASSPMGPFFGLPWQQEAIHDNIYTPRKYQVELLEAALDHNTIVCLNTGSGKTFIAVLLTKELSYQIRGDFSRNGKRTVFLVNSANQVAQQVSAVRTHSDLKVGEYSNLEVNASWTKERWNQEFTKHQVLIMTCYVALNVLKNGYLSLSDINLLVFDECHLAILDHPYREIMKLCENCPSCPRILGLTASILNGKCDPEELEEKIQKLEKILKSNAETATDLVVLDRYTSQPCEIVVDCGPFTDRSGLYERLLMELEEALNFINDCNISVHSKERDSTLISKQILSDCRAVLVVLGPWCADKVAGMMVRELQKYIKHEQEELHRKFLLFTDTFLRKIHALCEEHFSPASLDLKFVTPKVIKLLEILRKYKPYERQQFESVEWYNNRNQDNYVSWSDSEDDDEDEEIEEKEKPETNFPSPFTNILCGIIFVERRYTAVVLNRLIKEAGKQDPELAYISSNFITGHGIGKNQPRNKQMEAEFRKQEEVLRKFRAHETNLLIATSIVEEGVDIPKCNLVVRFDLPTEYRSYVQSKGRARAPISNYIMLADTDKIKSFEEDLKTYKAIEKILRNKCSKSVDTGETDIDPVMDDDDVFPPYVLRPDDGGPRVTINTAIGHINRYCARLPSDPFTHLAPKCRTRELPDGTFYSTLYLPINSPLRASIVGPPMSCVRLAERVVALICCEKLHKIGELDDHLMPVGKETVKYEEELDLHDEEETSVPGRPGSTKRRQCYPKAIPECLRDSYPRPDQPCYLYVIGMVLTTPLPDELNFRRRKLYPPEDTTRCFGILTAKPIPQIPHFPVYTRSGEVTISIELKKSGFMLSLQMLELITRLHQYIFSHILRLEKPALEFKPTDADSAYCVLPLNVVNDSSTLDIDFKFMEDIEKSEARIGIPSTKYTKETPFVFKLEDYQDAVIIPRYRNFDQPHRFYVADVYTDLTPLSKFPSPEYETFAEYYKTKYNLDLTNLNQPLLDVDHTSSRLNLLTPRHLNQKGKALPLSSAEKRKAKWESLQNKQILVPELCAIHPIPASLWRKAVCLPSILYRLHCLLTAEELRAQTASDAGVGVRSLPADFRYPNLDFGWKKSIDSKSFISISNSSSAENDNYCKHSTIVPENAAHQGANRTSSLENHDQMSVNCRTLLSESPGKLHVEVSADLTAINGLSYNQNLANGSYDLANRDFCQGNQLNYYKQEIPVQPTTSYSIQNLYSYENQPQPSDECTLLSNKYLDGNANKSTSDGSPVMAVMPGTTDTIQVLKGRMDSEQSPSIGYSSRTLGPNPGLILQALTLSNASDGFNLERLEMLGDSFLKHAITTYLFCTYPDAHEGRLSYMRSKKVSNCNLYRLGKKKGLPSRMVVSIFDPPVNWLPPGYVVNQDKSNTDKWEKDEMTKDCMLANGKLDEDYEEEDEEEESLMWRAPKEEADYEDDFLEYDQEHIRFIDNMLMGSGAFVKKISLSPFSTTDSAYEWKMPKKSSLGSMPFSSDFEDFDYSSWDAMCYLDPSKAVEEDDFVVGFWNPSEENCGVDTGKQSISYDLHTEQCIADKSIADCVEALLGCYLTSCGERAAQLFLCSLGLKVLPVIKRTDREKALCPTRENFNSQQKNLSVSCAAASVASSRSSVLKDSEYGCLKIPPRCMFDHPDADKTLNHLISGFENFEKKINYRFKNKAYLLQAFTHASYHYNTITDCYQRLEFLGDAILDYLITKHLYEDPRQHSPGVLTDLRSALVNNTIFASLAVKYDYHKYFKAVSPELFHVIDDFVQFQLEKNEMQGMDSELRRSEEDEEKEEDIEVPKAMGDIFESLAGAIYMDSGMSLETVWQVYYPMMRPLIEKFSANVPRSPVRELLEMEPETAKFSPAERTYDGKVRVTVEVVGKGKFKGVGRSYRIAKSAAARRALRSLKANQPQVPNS
Dicer;PACT, sequence (Q9UPY3 whole entry, one chain of several): as above

B1: dsRNA A (dsRNA)
RNA 1: UGGCCUUGGGCAACGGUAAUU
RNA 2: UUACCGUUGCCCAAGGCCAUU
**Q.** Does B1 bind [1]?
**A.** binds

**Q.** Does B1 bind [2]?
**A.** binds

**Q.** Does B1 bind [3]?
**A.** no binding

**Q.** Does B1 bind [4]?
**A.** binds

B2: T12P3 (other, human, UniProt Q15633 1-232, looked up)
chain: MSEEEQGSGTTTGCGLPSIEQMLAANPGKTPISLLQEYGTRIGKTPVYDLLKAEGQAHQPNFTFRVTVGDTSCTGQGPSKKAAKHKAAEVALKHLKGGSMLEPALEDSSSFSPLDSSLPEDIPVFTAAAAATPVPSVVLTRSPPMELQPPVSPQQSECNPVGALQELVVQKGWRLPEYTVTQESGPAHRKEFTMTCRVERFIEIGSGTSKKLAKRNAAAKMLLRVHTVPLDAPENHISLTNVVGHSLGCTWHSLRNSPGEKINLLKRSLLSIPNTDYIQLLSEIAKEQGFNITYLDIDELSANGQYQCLAELSTSPITVCHGSGISCGNAQSDAAHNALQYLKIIAERK
notes: TRBP, human, residues 1-232 (dsRBD1, linker, dsRBD2); PACT, human, residues 197-313 (with dsRBD3); purified by the PACT method, which removes His6-MBP by TEV cleavage; also called chimeric protein T12P3; source: purified (HiTrap-Q flow-through, HiTrap-SP, then as PACT)
**Q.** Does B2 bind [5]?
**A.** binds

B3: protein activator of PKR (PACT) (natural protein, human, UniProt O75569 1-313, looked up)
chain: MSQSRHRAEAPPLEREDSGTFSLGKMITAKPGKTPIQVLHEYGMKTKNIPVYECERSDVQIHVPTFTFRVTVGDITCTGEGTSKKLAKHRAAEAAINILKANASICFAVPDPLMPDPSKQPKNQLNPIGSLQELAIHHGWRLPEYTLSQEGGPAHKREYTTICRLESFMETGKGASKKQAKRNAAEKFLAKFSNISPENHISLTNVVGHSLGCTWHSLRNSPGEKINLLKRSLLSIPNTDYIQLLSEIAKEQGFNITYLDIDELSANGQYQCLAELSTSPITVCHGSGISCGNAQSDAAHNALQYLKIIAERK
notes: called full-length; the chimeras' limits run to residue 313; source: purified (TEV cleavage, HiTrap-SP, Superdex-200)
**Q.** Does B3 bind [5]?
**A.** binds

B4: trans-activation response RNA-binding protein (TRBP) (natural protein, human, UniProt Q15633 1-366, looked up)
chain: T1 sequence
notes: called full-length; the chimeras' limits run to residue 366; removal of His6-MBP after TEV cleavage on a Ni-NTA column is told by comparison with the PACT purification
**Q.** Does B4 bind [6]?
**A.** binds
